1 substance from paper PMC2680933 can be followed below.

pKd: −log10 of the molar value.

Among the targets are III3(V834D)-FRET; III3(V798D)-FRET; III3(D838G)-FRET.
What all share (experiment): FRET or BRET
A general note: In BRET a luciferase serves as donor, and the signal depends on an acceptor being close.

The target of test [1] is III3-FRET (III3 flanked by mYPet and mECFP*).

As a reminder, the pKd is the negative decadic logarithm of the Kd, by convention in mol/L. A high value points to a low Kd. In the test with III3(V834D)-FRET, anastellin (domain or fragment) showed an FRET efficiency of the construct with anastellin (0.21 without) of 0.27, a pKd greater than 7.30 and a half time of binding of less than 1 s. In test [1], the FRET efficiency of the construct with anastellin (0.19 without) was 0.28, the pKd was 6.68, the first order rate constant of binding was found to be 0.02 s⁻¹ and the half time of binding was 30 s. In the test with III3(V798D)-FRET, this substance had an FRET efficiency of the construct with anastellin (0.21 without) of 0.28, a pKd of 6.74 and a half time of binding of less than 1 s. Besides, in the test with III3(D838G)-FRET, the FRET efficiency of the construct with anastellin (0.18 without) came to 0.27, the pKd is 6.31 and the half time of binding was determined as 60 s.
